Experiment: soluble fraction after stress (log2 fold change); higher = more stays soluble; pooled small domains, quantitative proteomics
Settings: stress: 50 degC
Method in brief: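 Custom libraries of small protein domains were pooled and measured in a high-throughput format, with quantitative proteomics as the read-out. Each library was stressed at 50°C. The value is the log2 fold change in the amount of each protein that stays soluble after stress, used as a measure of aggregation propensity; higher values mean more of the protein stays soluble.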

Sequence	soluble fraction (log2)
HMSLNQRIKEARIKMGYTQEQLGNLIGVAKTTISGYEKNREPDAATIGLIIDALKVDANFLFQ	-1.62
HMDPTVEENKLNPRDLLIIQRVKEGRTNKEIAEELNVAEITVKKQLSSLYQRYKVHNRNQLLLALD	0.117
HMKIERKGDESYLSFVERATSALSDGLIDYQQWGRAVVGEDLYSEENTRRIAKFFAQFIQNLEND	-1.9
HMTPVYLNARQKQILAFLKREEPAKVGDIAHALKTISINTLKKDLLYLRQKNLIESHGVLKGTIYTVK	-1.41
HMESIGANIRRLRKERNMSQDELARKAFTNRSNINRYESGKMVPSADTTEKIEEALGVPAGTLAQ	0.132
HMNNPLPDLLKYFRKKKHLTQEQVAKQLSVSRASYASYETGRIIPGMQHIMELSRILEHDFLFAYTLAVQ	-2.34
HMIGILSDREAEILALLDEGLTNKAIGRRLNLAEPTVKFHLKNLYAKLGVGRRQLAVNVAKGSGLLNSD	-0.699
HMGKTEETLQMEKLVEALRRSGRMKYEDAYRIVYAAFPDAKDFEGMLSGAIRAGFIELQMGNDGAFLRAL	-0.172
HMIHKTDAINLGQRLLKSSLKEFDVSLKDIPNKTLMYILSEYKFNSLDDLYREIGLGNVIPKLVALRMAP	-0.423
HMSPEWTPAEQDAIDKASEGEYGEALQRVLSGDYEPMDIPDALWGVQQVADKDTYSSIQKKIADIGN	0.42
HMDKAALGQKLRQARLDKGYTQQSLSEKADIGEVYLSEIERGLKMPSMNLFIKLITALDISADYILR	-1.44
HMPKMISPAQIKAIGAKTNNIAKASGVEQAQVYQSAVAHLGINNKSTKELTSQEASKVIEYLSTL	0.0861
HMDAVLMEYDRLLALELTEDPDVYQDLLDKVREQSLGADGRVTDKYREKFDAVATRFDDYEDNYQW	-0.52
HMYTVQPHESLWSIAASQLGDGHRFTEIVDLNQELLGGKANFIKPGWVLQIP	-0.299
HMSTVAETVYNEIRDDILYGELQPGVKLKLEALRERYSVGVNTLREVLNRLVASGFVFVEGQKGFRVV	0.0966
HMEINKLIELIGGYKALSEVLNVSKSAISNYKKRGSLPSYAIPIIVKELKSKGISIDLSEFT	-0.66
HMQQPVAYSEFVQSVNDRQIREAQIQGERIVATDNNGNRMTVIWPENDTKLLDELVQNGVLTSIQE	0.12
HMTDYVPTIGTKISKDFGSKGYFEGEVVSGPHNVTVEGDNMVVWKVQYEDGDREEMTASEIAHWKA	-0.105
HMEYTVNHYPEKHRFEVVEDGLTAYVEYRLRGDALDIIHTIVPKNLEGRGIAATLVETAYKYAKEQ	-1.2

Sequence	soluble fraction (log2)
HMLKKRKPMSGVGVIVKGMLTGTVTGTDGSYALKARPNDELSFSFLGYKTQEVFVGSKSTIDITLVDEA	-0.13
HMATKVNSGVTVRDLAELLGLSSADLIKKLMTMGEMATLTQTLTDDSVKAIADEYDRKIEIVSAAQ	-0.0488
HMSSKRDQFIVLGQEILEKMFKNEGLEFSEKGLLAVMPNFEAESINDIYAKVGEGLISGWDVMKAVYPAY	-0.133
HMSDIHARIAAALAALTSPEKIHDLVVDDDGKVSFTFHLTREDPATLVRDARKAVQAVDGVRDVKVNVVDP	0.172
HMNPGQIIRKLRQDQGMTLAVLAKYANLDPGNLSRIERDDLNISFNLLEKLSLILNVSPIVFFH	-0.154
HMATETELNLQLMRIIDELHTDHNTWGSRKITDYLRLQGYEINRKRIQRLMDVMDIQVVYPK	-1.98
HMKTELAYDFHSRIRDARIREGLSQVDLAKRMNEKIAVIQKAENGIRPTDSLIAKFSKALSVELYVE	-1.26
HMTRYEQLAAQIRQQIEDNIWQSGDRLPSLRDTVKQSGLSLMTVLQSYQLLESQGWITARPQSGYYVAHR	0.348
HMNIAESIRKYRKASGLTQEEMAKRLGVTTPAVSKWENGITNPDIALLAPIARLFHISVDTLLSYR	-0.403
HMNSNIIKTINDELSIRKGKYGPYIMYKTKKMKRPKFKSIGDNTPDEFLADKGSISEIILWIN	-0.444
HMKNYYEVLGVPRDAAAPDIKRAFRKLAKQFHPDHNPGDAKAEERFKLVSQAYDVLGDEEKRKLYDQFGE	0.173
HMRFSYLNIETRKDISSLINKSEITHSSYNNNEYLYKIKSKKTDDFKDLISLIDEKDLISYSIDS	-0.838
HMELIELTVTEEFEMARLDQFLAGHLTQSRTYIQKLIKAGQITINGNLITRVKVPVHYGDFILINIPDPE	-3.54
HMVKSSVTEVISMINALPVTVKPEDKADIISARMAYDTLTEDEKALVTNYEILTAAETRFNELIATT	0.205
HMKSLDDVISKFRPTGSENKIDFRKRVISEIHAQGFFKIKGSVNHVAKALGVTRYTVYNYLDKLND	-3.23
HMGSAIAHAIASLPDRYRELLLLKYDTGYSEKEIAQLLGMTEANVKKTIQRAKAKLQTLLDEMEA	-0.81
HMERLTVVPELLKRSLSEAQPLVTSARLRLEVSGGAPEDTSRAIVVGQKPPPGTRVQVGTTVIVTVQIQRP	-0.0498
HMINLDYILELIFEKNNKTKDKTALIEEIRGVIRASVGNRAKESLIVDFINDTDLDTITDKASIIESFFEY	-3.51
HMAKSMRHLIVPSRETSLWRDKLSTNGWLSKGYGIHNLDDYRGIPLNETAPKIIEGLEITELEPIS	0.0863
